Experimental data as given in the supplement of paper PMC10065799, “High-throughput profiling of sequence recognition by tyrosine kinases and SH2 domains using bacterial peptide display” (eLife, 2023).

What was measured:
Grb2 SH2 = Grb2 SH2 (UniProt P62993); test: SH2 binding enrichment of the phosphorylated peptide, bacterial display (enrichment ratio); higher = better substrate or ligand; peptides without Tyr show the background
c-Src SH2 = test: as above
SHP2-C SH2 = test: as above
EPHB1 = EPHB1 (UniProt P54762); test: phosphorylation enrichment, bacterial display (enrichment ratio); higher = better substrate or ligand; peptides without Tyr show the background
FGFR3 = FGFR3 (UniProt P22607); test: as above
Jak2 = Jak2 (UniProt O60674); test: as above
Fes = Fes (UniProt P07332); test: as above
c-Abl (mouse) = test: as above
c-Src = test: as above
Fer (mouse) = test: as above
Hck = Hck (UniProt P08631); test: as above
EPHB2 = EPHB2 (UniProt P29323); test: as above
AncSZ = test: as above
Fyn = Fyn (UniProt P06241); test: as above
MERTK = MERTK (UniProt Q12866); test: as above
FGFR1 = FGFR1 (UniProt P11362); test: as above
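Throughout, for SH2 binding enrichment of the phosphorylated peptide, bacterial display: peptide library displayed on the E. coli surface as eCPX fusions, selected cells deep-sequenced, score is each peptide's frequency after selection divided by its frequency in the input.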
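Throughout, for phosphorylation enrichment, bacterial display: 11-residue human phosphosite peptides and single-mutation variants displayed on the E. coli surface, counted by deep sequencing, each peptide's frequency after selection divided by its frequency in the unselected input library; frequency after pTyr selection over input frequency; kinase dosed for 20-30% of maximal phosphorylation in three min.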

Sequence of EPHB2 (P29323 whole entry, looked up): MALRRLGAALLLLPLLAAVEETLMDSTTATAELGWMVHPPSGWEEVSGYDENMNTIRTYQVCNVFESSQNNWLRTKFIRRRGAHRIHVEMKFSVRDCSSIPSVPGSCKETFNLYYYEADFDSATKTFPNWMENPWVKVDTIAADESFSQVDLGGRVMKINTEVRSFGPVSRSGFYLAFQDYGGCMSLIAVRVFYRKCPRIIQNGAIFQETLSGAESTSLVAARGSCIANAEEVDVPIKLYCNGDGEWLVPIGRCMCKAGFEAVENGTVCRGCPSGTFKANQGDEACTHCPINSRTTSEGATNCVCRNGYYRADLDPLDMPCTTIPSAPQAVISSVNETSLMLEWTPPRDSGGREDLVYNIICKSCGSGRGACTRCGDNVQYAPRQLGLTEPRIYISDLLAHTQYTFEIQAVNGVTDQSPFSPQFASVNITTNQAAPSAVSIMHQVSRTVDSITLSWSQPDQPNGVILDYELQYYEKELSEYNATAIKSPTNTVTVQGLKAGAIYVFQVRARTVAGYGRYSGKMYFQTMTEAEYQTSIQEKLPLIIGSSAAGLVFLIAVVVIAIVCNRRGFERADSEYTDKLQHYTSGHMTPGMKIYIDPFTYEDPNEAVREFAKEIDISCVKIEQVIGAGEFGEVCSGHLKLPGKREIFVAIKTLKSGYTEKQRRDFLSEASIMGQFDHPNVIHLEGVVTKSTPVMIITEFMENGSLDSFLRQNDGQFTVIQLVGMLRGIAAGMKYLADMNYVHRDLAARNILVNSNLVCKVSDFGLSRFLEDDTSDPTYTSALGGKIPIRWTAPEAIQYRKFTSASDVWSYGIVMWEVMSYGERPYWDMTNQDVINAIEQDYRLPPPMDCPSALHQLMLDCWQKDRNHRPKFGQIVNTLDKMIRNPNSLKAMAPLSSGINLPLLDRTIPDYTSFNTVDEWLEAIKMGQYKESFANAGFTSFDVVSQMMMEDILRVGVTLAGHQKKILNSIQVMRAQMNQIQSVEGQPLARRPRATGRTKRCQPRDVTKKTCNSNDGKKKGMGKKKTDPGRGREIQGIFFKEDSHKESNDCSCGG
Sequence of Grb2 SH2 (P62993 whole entry, looked up): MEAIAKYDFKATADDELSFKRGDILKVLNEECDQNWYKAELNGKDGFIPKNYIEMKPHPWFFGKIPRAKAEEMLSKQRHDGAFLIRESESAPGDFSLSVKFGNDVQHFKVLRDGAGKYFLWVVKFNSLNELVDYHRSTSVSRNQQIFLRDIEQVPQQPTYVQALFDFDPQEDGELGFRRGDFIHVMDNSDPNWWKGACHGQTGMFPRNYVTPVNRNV
Sequence of Fes (P07332 whole entry, looked up): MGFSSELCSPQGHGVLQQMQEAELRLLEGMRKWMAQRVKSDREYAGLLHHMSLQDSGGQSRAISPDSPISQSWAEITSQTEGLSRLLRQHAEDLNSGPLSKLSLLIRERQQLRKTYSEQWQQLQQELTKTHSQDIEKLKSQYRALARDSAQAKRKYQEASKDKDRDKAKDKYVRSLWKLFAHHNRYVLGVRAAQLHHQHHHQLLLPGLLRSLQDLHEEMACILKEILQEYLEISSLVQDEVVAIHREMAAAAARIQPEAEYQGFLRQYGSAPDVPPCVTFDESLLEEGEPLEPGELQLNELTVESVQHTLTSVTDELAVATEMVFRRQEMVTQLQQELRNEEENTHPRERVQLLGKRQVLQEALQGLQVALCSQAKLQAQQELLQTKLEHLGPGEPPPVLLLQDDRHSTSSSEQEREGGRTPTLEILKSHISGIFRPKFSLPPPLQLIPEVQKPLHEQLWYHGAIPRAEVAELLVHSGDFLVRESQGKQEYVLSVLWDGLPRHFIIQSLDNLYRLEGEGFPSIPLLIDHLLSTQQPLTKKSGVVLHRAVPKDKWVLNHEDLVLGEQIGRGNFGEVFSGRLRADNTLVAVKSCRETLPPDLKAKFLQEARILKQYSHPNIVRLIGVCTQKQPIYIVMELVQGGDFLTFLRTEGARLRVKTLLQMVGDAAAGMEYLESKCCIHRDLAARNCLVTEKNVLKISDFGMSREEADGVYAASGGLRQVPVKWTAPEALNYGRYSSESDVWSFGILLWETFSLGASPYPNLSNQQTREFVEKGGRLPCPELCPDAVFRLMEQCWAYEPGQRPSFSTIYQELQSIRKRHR
Sequence of Jak2 (O60674 whole entry, looked up): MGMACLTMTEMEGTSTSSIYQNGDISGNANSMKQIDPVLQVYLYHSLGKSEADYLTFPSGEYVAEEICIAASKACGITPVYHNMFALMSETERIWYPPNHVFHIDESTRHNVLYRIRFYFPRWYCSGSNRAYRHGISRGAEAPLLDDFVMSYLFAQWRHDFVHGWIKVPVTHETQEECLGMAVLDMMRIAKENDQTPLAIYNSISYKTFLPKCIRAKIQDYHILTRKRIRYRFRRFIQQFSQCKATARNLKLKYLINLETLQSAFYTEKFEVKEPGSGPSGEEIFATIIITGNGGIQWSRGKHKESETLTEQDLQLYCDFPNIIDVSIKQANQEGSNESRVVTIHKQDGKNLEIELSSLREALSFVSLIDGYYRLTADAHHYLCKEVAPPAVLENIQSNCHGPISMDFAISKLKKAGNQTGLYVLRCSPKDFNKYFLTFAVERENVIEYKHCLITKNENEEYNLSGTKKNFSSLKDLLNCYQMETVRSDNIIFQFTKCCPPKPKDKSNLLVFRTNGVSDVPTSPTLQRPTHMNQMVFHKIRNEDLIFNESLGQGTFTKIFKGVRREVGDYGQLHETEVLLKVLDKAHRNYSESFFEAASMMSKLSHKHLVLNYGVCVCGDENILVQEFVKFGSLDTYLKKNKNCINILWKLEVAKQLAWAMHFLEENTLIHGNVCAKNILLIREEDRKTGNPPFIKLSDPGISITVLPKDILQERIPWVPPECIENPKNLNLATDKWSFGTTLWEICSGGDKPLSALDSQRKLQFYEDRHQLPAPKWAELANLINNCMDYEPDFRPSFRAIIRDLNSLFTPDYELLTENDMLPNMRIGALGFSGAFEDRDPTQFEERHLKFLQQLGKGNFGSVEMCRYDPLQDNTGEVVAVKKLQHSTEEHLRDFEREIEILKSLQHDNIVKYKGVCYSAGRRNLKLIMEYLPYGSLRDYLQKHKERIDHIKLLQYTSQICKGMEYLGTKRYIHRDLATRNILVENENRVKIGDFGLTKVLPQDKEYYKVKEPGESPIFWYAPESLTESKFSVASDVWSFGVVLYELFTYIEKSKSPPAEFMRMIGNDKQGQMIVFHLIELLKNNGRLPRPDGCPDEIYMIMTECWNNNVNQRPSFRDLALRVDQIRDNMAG
Sequence of Fyn (P06241 whole entry, looked up): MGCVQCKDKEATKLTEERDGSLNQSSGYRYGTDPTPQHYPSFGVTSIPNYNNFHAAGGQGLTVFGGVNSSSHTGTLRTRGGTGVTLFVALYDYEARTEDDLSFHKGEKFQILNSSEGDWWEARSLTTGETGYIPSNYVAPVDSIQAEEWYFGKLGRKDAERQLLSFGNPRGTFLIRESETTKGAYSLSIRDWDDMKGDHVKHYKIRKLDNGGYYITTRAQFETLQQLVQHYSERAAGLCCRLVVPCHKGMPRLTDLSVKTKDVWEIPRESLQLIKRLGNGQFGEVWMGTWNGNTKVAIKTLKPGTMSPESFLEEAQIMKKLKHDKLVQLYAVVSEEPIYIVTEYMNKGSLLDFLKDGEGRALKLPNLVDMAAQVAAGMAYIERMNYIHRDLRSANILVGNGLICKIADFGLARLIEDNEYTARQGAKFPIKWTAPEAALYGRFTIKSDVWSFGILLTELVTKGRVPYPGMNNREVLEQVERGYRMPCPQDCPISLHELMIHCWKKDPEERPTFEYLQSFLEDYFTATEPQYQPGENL
Sequence of FGFR3 (P22607 whole entry, looked up): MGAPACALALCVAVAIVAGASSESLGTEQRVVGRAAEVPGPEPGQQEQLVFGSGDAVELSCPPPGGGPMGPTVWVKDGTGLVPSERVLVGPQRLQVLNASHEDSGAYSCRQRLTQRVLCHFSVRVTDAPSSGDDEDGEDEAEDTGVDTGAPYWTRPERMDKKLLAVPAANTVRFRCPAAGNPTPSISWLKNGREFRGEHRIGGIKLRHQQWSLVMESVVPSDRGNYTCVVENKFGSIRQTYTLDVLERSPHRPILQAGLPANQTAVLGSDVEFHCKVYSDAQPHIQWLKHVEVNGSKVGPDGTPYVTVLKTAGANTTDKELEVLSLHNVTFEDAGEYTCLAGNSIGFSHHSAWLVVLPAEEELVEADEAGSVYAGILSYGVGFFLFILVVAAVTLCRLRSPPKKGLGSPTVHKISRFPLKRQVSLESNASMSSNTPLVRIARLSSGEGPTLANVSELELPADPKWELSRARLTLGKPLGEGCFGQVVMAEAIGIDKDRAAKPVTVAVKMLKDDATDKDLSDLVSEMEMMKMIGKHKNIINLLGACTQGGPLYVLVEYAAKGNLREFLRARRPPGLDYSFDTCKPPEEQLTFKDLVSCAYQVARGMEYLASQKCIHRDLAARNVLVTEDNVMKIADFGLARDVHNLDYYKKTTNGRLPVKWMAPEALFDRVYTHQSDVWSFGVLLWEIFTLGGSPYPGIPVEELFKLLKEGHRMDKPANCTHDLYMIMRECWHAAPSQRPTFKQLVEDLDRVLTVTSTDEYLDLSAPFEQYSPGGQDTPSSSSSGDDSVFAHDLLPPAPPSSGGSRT

| Sequence | SH2 binding enrichment (Grb2 SH2) | SH2 binding enrichment (c-Src SH2) | SH2 binding enrichment (SHP2-C SH2) | phosphorylation enrichment (EPHB1) | phosphorylation enrichment (FGFR3) | phosphorylation enrichment (Jak2) | phosphorylation enrichment (Fes) | phosphorylation enrichment (c-Abl (mouse)) | phosphorylation enrichment (c-Src) | phosphorylation enrichment (Fer (mouse)) | phosphorylation enrichment (Hck) | phosphorylation enrichment (EPHB2) | phosphorylation enrichment (AncSZ) | phosphorylation enrichment (Fyn) | phosphorylation enrichment (MERTK) | phosphorylation enrichment (FGFR1) |
| --- | --- | --- | --- | --- | --- | --- | --- | --- | --- | --- | --- | --- | --- | --- | --- | --- |
| IFETDYFRKGG [INSR_Y1189_YF] | 0.918 | 0.472 | 0.672 | 0.568 | 0.686 | 0.934 | 0.938 | 0.741 | 0.539 | 0.581 | 0.529 | 0.626 | 0.988 | 0.5 | 0.436 | 0.536 |
| IGEGTYGVVYK [CDK2_Y15] | 0.73 | 0.507 | 0.535 | 2.67 | 0.67 | 0.756 | 0.896 | 0.63 | 5.96 | 1.73 | 7.9 | 7.28 | 0.907 | 10.6 | 2.01 | 0.551 |
| IGEVVYQRAAM [GRIN2A_Y502_V506A] | 0.84 | 0.53 | 0.883 | 0.442 | 0.394 | 0.595 | 0.824 | 5.89 | 1.27 | 0.78 | 1.66 | 0.425 | 0.841 | 0.9 | 0.441 | 0.438 |
| IGHHAYGDQFR [IDH1_Y135_R132H_YF] | 0.885 | 0.487 | 0.659 | 0.444 | 0.477 | 0.503 | 0.618 | 0.516 | 0.373 | 0.371 | 0.381 | 0.417 | 0.63 | 0.346 | 0.397 | 0.414 |
| IGRHAYGDQFR [IDH1_Y135_YF] | 0.996 | 0.817 | 0.633 | 0.367 | 0.383 | 0.487 | 0.507 | 0.516 | 0.407 | 0.339 | 0.341 | 0.391 | 0.449 | 0.381 | 0.296 | 0.331 |
| IGSHAYGDQYR [IDH1_Y135_R132S] | 0.848 | 0.433 | 0.521 | 0.497 | 0.517 | 0.554 | 0.619 | 0.576 | 0.43 | 0.374 | 0.342 | 0.419 | 0.583 | 0.464 | 0.406 | 0.45 |
| IHKEFYDGLFP [BCR_Y561] | 0.946 | 0.913 | 0.77 | 0.802 | 0.853 | 1.06 | 1.27 | 0.864 | 0.878 | 0.699 | 1.17 | 0.743 | 1.08 | 0.57 | 0.823 | 0.606 |
| IHTDAYVRAMT [RPE65_Y89_R85H] | 0.76 | 0.451 | 0.914 | 0.35 | 0.401 | 0.442 | 0.589 | 0.474 | 0.363 | 0.407 | 0.397 | 0.414 | 0.475 | 0.375 | 0.319 | 0.389 |
| IIEDPYFGNDF [ACP1_Y132_S137F_YF] | 0.769 | 0.519 | 0.662 | 0.664 | 0.908 | 1.3 | 1.43 | 0.871 | 2.98 | 0.757 | 0.823 | 0.695 | 1.36 | 1.11 | 0.487 | 0.791 |
| IIEDPYYGNDF [ACP1_Y132_S137F] | 0.958 | 0.726 | 0.488 | 0.683 | 2.88 | 1.48 | 1.48 | 1.09 | 4.91 | 1.42 | 1.55 | 0.666 | 1.79 | 2.71 | 1.15 | 3.18 |
| IIGNGYFFHVF [MYBPC3_Y1135_R1138H_YF] | 0.848 | 0.484 | 0.74 | 0.569 | 0.699 | 1.07 | 1.09 | 0.776 | 0.34 | 0.398 | 0.314 | 0.547 | 1.11 | 0.313 | 0.254 | 0.4 |
| IIQRAYRGHLL [SCN1A_Y1926_R1928G] | 0.758 | 0.5 | 0.559 | 0.38 | 0.628 | 0.555 | 0.671 | 0.437 | 0.432 | 0.387 | 0.428 | 0.327 | 0.483 | 0.429 | 0.47 | 0.447 |
| IKNFKYGIEEH [GJA1_Y137_K134N] | 0.865 | 0.416 | 0.456 | 0.351 | 0.549 | 0.682 | 0.715 | 0.38 | 0.368 | 0.311 | 0.414 | 0.508 | 0.621 | 0.335 | 0.383 | 0.388 |
| IKNPQYFSDAC [NTRK1_Y496_E492K] | 0.909 | 0.524 | 0.895 | 0.37 | 0.591 | 0.634 | 0.74 | 0.464 | 0.473 | 0.37 | 0.418 | 0.415 | 0.648 | 0.464 | 0.344 | 0.548 |
| ILCTVYAFKTR [GRM3_Y754] | 1.3 | 0.794 | 0.985 | 0.577 | 0.715 | 1.33 | 1.49 | 0.696 | 0.599 | 0.61 | 0.624 | 0.478 | 1.52 | 0.528 | 0.609 | 0.543 |
| ILDEAYVMAIV [EGFR_Y764_S768I] | 0.791 | 0.432 | 0.581 | 0.62 | 1.02 | 1.39 | 1.35 | 0.84 | 0.829 | 0.968 | 0.531 | 0.686 | 1.5 | 0.662 | 0.454 | 0.963 |
| IMNLLYHVVGW [GBA_Y412_T408M] | 1.61 | 1.41 | 1.66 | 4.93 | 5.38 | 2.43 | 0.872 | 2.74 | 5.2 | 2.16 | 6.31 | 2.71 | 0.963 | 4.49 | 7.65 | 6.14 |

| Sequence | SH2 binding enrichment (Grb2 SH2) | SH2 binding enrichment (c-Src SH2) | SH2 binding enrichment (SHP2-C SH2) | phosphorylation enrichment (EPHB1) | phosphorylation enrichment (FGFR3) | phosphorylation enrichment (Jak2) | phosphorylation enrichment (Fes) | phosphorylation enrichment (c-Abl (mouse)) | phosphorylation enrichment (c-Src) | phosphorylation enrichment (Fer (mouse)) | phosphorylation enrichment (Hck) | phosphorylation enrichment (EPHB2) | phosphorylation enrichment (AncSZ) | phosphorylation enrichment (Fyn) | phosphorylation enrichment (MERTK) | phosphorylation enrichment (FGFR1) |
| --- | --- | --- | --- | --- | --- | --- | --- | --- | --- | --- | --- | --- | --- | --- | --- | --- |
| IMWDSYTTNKV [GNB3_Y85_V81M] | 0.749 | 0.66 | 0.675 | 0.544 | 0.64 | 0.91 | 0.885 | 0.553 | 0.369 | 0.392 | 0.421 | 0.437 | 0.945 | 0.33 | 0.305 | 0.451 |
| INQGPYENHSV [ATP6V1B1_Y462_R465H] | 4.77 | 2.07 | 0.777 | 0.436 | 0.524 | 0.68 | 0.804 | 0.54 | 0.524 | 9.94 | 0.4 | 0.639 | 0.646 | 0.471 | 0.55 | 0.441 |
| INSLKYAYNIS [EIF2B5_Y583] | 0.778 | 0.665 | 0.598 | 0.403 | 0.474 | 0.569 | 0.762 | 0.421 | 0.412 | 0.392 | 0.401 | 0.368 | 0.476 | 0.414 | 0.398 | 0.425 |
| IQKWEYVPLGP [FAH_Y244] | 0.834 | 0.656 | 0.558 | 0.612 | 0.822 | 1.43 | 1.01 | 0.791 | 0.453 | 0.454 | 0.48 | 0.521 | 1.02 | 0.514 | 0.597 | 1.11 |
| ISKQEYDEAGP [ACTC1_Y364] | 0.921 | 6.16 | 0.718 | 0.65 | 0.819 | 1.31 | 1.29 | 0.79 | 0.598 | 0.627 | 0.616 | 0.741 | 1.28 | 0.602 | 0.518 | 0.522 |
| ITRDEYPSNPM [CEMIP2_Y1015] | 0.717 | 0.475 | 0.629 | 0.413 | 0.467 | 0.497 | 0.589 | 0.414 | 0.345 | 0.344 | 0.352 | 0.369 | 0.688 | 0.413 | 0.329 | 0.426 |
| IVKAYYVRARA [AIPL1_Y268] | 0.976 | 0.521 | 0.923 | 0.358 | 0.471 | 0.743 | 0.936 | 0.512 | 0.361 | 0.396 | 0.419 | 0.47 | 1.01 | 0.466 | 0.502 | 0.466 |
| IVLRSYPASDH [NID2_Y449_G453D] | 1.01 | 0.467 | 0.793 | 0.543 | 0.546 | 0.743 | 0.823 | 0.583 | 0.416 | 0.44 | 0.44 | 0.495 | 0.966 | 0.478 | 0.465 | 0.496 |
| IVRSLYEDLED [VHL_Y185] | 0.875 | 7.79 | 1.03 | 0.584 | 0.73 | 1.01 | 1.08 | 0.68 | 0.393 | 1.17 | 0.564 | 0.573 | 1.19 | 0.509 | 0.424 | 0.505 |
| KACKHYLTKRT [ZBTB5_Y118_T121K] | 1.94 | 1.72 | 1.85 | 0.493 | 1.19 | 1.3 | 1.17 | 1.05 | 0.581 | 0.668 | 0.582 | 0.662 | 0.667 | 0.595 | 0.605 | 0.629 |
| KAIMTYVFSFY [ACTN4_Y260_S262F] | 0.987 | 0.561 | 1.08 | 0.63 | 0.794 | 1.06 | 1.27 | 0.966 | 0.507 | 0.54 | 0.464 | 0.592 | 1.19 | 0.438 | 0.436 | 0.559 |
| KALKQYRAGPS [DDX27_Y763] | 1.04 | 0.438 | 0.804 | 0.34 | 0.368 | 0.545 | 0.553 | 0.531 | 0.407 | 0.389 | 0.454 | 0.312 | 0.473 | 0.43 | 0.391 | 0.355 |
| KDAGDYKFKAK [LRIT3_Y326_C328Y_YF] | 0.792 | 0.504 | 0.853 | 0.345 | 0.362 | 0.392 | 0.613 | 0.338 | 0.305 | 0.278 | 0.38 | 0.259 | 0.406 | 0.322 | 0.443 | 0.421 |
| KDFETYQPFQN [CTNND2_Y1157_YF] | 0.948 | 0.544 | 0.699 | 0.69 | 0.603 | 0.869 | 1.02 | 0.741 | 4.18 | 0.612 | 5.76 | 0.786 | 1.13 | 4.76 | 0.463 | 0.54 |
| KDFETYQSFQN [CTNND2_Y1157_P1159S_YF] | 0.846 | 0.523 | 0.816 | 2 | 0.691 | 0.798 | 0.984 | 0.668 | 4.94 | 0.493 | 5.29 | 1.17 | 0.958 | 6.89 | 0.484 | 0.5 |
| KDHLDYKYQPR [SOX9_Y172_P170L] | 1.18 | 0.697 | 1.09 | 0.419 | 0.629 | 0.452 | 0.704 | 0.451 | 0.433 | 0.445 | 0.415 | 0.448 | 0.585 | 0.441 | 0.418 | 0.462 |
